B1: crystal oligo Egr1 5hmC/5hmC (dsDNA)
DNA 1: AGCGTGGGCGT
DNA 2: TACGCCCACGC
modifications: 5hmC in both strands of the 3' GCG
B2: crystal oligo Egr1 5mC/5mC (dsDNA)
DNA 1: AGCGTGGGCGT
DNA 2: TACGCCCACGC
modifications: 5mC in both strands of the 3' GCG
B3: crystal oligo Egr1 5fC/5fC (dsDNA)
DNA 1: AGCGTGGGCGT
DNA 2: TACGCCCACGC
modifications: 5fC in both strands of the 3' GCG

These binders were tested against Egr1/Zif268 ZnF1-3 (Homo sapiens, UniProt P18146) (assay: X-ray crystallography; Zn2+; FP: 5 nM FAM-dsDNA, 300 mM NaCl (200 mM in Fig 4E), 20 mM Tris-HCl pH 7.5, 5% glycerol, 0.5 mM TCEP, 25 C, 10 min).

Binding result, binds:
B1
B2
B3

— paper PMC4201290, “Wilms tumor protein recognizes 5-carboxylcytosine within a specific DNA sequence”
